Assay results published in patent EP4717710A1 (UIF (University Industry Foundation), Yonsei University, dated 2026).

T1: IL-4R (recombinant protein) (human, UniProt P24394 26-232, biotinylated (Acro Biosystems ILR-H82E9) in the ELISA)
T1 construct: Bought recombinant IL-4R; also called IL-4 receptor; IL-4R molecule
T1 sequence (looked up): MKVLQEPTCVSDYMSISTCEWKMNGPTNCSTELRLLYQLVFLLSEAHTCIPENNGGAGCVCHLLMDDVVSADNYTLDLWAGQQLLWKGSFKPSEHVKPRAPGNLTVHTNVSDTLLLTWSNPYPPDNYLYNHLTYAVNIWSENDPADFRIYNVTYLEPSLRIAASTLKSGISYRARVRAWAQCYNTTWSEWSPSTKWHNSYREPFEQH

T2: IL-4R on cells (human, UniProt P24394 26-825)
T2 sequence (looked up): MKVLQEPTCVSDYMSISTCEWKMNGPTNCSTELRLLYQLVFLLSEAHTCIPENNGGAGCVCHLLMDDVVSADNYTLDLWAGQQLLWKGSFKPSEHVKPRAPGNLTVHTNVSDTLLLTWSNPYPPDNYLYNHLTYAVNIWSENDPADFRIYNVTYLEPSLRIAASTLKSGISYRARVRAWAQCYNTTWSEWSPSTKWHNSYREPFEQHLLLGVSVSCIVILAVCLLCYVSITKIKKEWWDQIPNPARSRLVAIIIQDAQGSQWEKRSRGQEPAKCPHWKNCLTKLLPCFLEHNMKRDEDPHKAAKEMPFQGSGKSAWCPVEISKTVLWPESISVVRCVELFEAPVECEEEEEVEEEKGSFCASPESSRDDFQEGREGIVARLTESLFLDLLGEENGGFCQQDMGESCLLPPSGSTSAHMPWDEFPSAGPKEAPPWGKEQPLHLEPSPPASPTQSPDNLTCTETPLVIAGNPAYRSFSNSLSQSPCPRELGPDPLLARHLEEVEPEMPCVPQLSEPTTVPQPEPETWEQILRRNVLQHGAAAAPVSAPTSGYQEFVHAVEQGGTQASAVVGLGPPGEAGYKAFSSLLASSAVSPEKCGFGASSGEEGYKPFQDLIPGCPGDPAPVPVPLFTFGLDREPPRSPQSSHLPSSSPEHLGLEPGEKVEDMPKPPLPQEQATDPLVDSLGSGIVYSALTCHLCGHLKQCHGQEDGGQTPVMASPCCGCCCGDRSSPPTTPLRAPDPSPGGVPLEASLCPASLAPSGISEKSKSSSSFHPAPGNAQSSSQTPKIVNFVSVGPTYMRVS


Legend:
[1] = target: T1, IL-4R (recombinant protein); assay: SPR
[2] = target: T1, IL-4R (recombinant protein); assay: ELISA, periplasmic extract captured by anti-c-Myc, 50 nM biotinylated IL-4R against MBP
[3] = target: T2, IL-4R on cells; assay: cell-based or functional assay

Binder | Kd [1] [nM] | fold-change of OD values for IL-4R and MBP [2] [fold] | IL-4 signal blocking in STAT6-luciferase reporter cells (667 pM IL-4, 24 hours) [3]
H5 nanobody (VHH, Synthetic nanobody (sybody, convex scaffold) expressed from pSBinit in E. coli and purified on TALON resin; It was detected with anti-Myc, so the tested protein probably carries Myc/His tags; also called WT H5; H5 wild-type nanobody) VHH: QVQLVESGGGSVQAGGSLRLSCAASGSISSITYLGWFRQAPGKEREGVAALSTSSGTTYYADSVKGRFTVSLDNAKNTVYLQMNSLKPEDTALYYCAAADKGREYTLARAKYWYWGQGTQVTVSA | 1420 | > 1.7 | ~2 fold concentration relative to dupilumab
H5 A110Y (VHH, also called H5 A110Y mutant) VHH: QVQLVESGGGSVQAGGSLRLSCAASGSISSITYLGWFRQAPGKEREGVAALSTSSGTTYYADSVKGRFTVSLDNAKNTVYLQMNSLKPEDTALYYCAAADKGREYTLARYKYWYWGQGTQVTVSA | 708 |  | 
H5 E104R (VHH, also called H5 E104R mutant) VHH: QVQLVESGGGSVQAGGSLRLSCAASGSISSITYLGWFRQAPGKEREGVAALSTSSGTTYYADSVKGRFTVSLDNAKNTVYLQMNSLKPEDTALYYCAAADKGRRYTLARAKYWYWGQGTQVTVSA | 1.06 |  | 
